# B1: antibody 40, full-length IgG (antibody, V domains shown)
# VH: QVQLVESGGGLVQPGGSLRLSCAVSGFTVSRNYMSWVRQAPGKGLEWVSLIYSGGSTFYADSVKGRFTISRDNSKNTLYLQMNSLRAEDTAVYYCARDLFHRSGYHDYWGQGTLVTVSS
# VL: not shown
# notes: also called mAb 40; 40 IgG
# B2: Fab of antibody 40 (Fab, V domains shown)
# VH: B1 VH
# VL: not shown
# notes: also called 40 Fab; Fab 40
# B3: antibody 158, full-length IgG (antibody, V domains shown)
# VH: EVQLLESGGDLIQPGGSLRLSCAASGVTVSSNYMSWVRQAPGKGLEWVSIIYPGGSTFYADSVKGRFTISRDNSKNTLYLQMHSLRAEDTAVYYCARDLGSGDMDVWGKGTTVTVSS
# VL: DIVMTQSPSFLSASVGDRVTITCRASQGISSYLAWYQQKPGKAPKLLIQAASTLQSGVPSRFSGSGSGTEFTLTISSLQPEDFATYYCQQLNSYRYTFGQGTKVEIK
# notes: also called mAb 158; 158 IgG
# B4: Fab of antibody 158 (Fab, V domains shown)
# VH: B3 VH
# VL: B3 VL
# notes: also called 158 Fab; Fab 158
# B5: antibody 88, full-length IgG (antibody, V domains shown)
# VH: QLQLQESGPGLVKPSQTLSLTCTVSGGSISSGSYNWTWIRQPAGKGLEWIGRIYNSGSTNYNPSLKSRVTISVDTSKNQLSLKVRSVTAADTAVYYCARHCSGGTCYPKYYYGMDVWGQGTTVTVSS
# VL: QSALTQPPSVSEAPRQRVTISCSGSSSNIGNNAVNWYQQFPGKAPKLLIYYDDLLPSGVSDRFSGSKSGTSASLAISGVQSEDEADYYCAAWDDSLNVVVFGGGTKLTVL
# notes: also called mAb 88; 88 IgG
# B6: Fab of antibody 88 (Fab, V domains shown)
# VH: B5 VH
# VL: B5 VL
# notes: also called 88 Fab; Fab 88
# B7: antibody 159, full-length IgG (antibody, V domains shown)
# VH: EVQLVESGGGVVQPGRSLRLSCAASGFTFSSYGMHWVRQAPGKGLEWVALISYDGGNRYYADSVKGRFTISRDNSKNTLYLQMNRLRAEDTAMYYCAKDRDDGWDWYYFMDVWGKGTTVTVSS
# VL: DIQLTQSPGTLSLSPGERATLSCRASQSISGNYLAWYQHKPGQAPRLLIYGASTRATGIPDRFSGSGSGTDFTLTISRLEPEDFAVYYCQQYGSSYTFGQGTKVEIK
# B8: antibody 316, full-length IgG (antibody, V domains shown)
# VH: not shown
# VL: QAVLTQPPSASGSPGQSVTISCTGTSSDVGGYNYVSWYQQHPGKAPKLMIYEVSKRPSGVPDRFSGSKSGNTASLTVSGLQAEDEADYYCSSYAGSNHWVFGGGTKLTVL
# notes: also called mAb 316; 316 IgG
# B9: Fab of antibody 316 (Fab, V domains shown)
# VH: not shown
# VL: B8 VL
# notes: also called 316 Fab; Fab 316
# B10: mAb 175 (antibody, V domains shown)
# VH: EVQLVESGGGLIQPGGSLRLSCAASGLTVSRNYMSWVRQAPGKGLEWVSLIYSGGSTYYADSVKGRFTISRDNSKNTLYLQMNSLRAEDTAVYYCARDLRGEVWGQGTMVTVSS
# VL: not shown
# B11: mAb 318 (antibody, V domains shown)
# VH: QVQLVQSGPEVKKPGTSVKVSCKASGFTLTSSAMQWVRQARGQRLEWIGWIVVGSGNTNYAQKFQERVTITRDMSTSTAYMELSSLRSEDTAVYYCAAGRGYNSDFDYWGQGTLVTVSS
# VL: AIRMTQSPGTLSLSPGERATLSCRASQSVSSSYLAWYQQRPGQAPRLLIYGTSSRATGIPDRFSGSGSGTDFTLTISRLEPEDFAVYYCQQYGYSVYTFGQGTKVDIK
# B12: mAb 45 (antibody, V domains shown)
# VH: QVQLVESGGGVVQPGRSLRLSCAASGFTFSTYAMHWVRQAPGKGLEWVAVLSYDGSNKYYADSVKGRFTISRDNSKNTLYLQMNSLRAEDTAVYYCAKGGSYAYYYYMDVWGKGTTVTVSS
# VL: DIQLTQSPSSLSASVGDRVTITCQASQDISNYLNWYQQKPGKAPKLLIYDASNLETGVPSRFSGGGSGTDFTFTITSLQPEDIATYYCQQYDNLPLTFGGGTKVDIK
# notes: also called antibody 45
# B13: mAb 269 (antibody, V domains shown)
# VH: QVQLVESGGGLIQPGGSLRLSCAASGLTVNRNYMSWIRQAPGKGLEWVSVIYSGGSTFYADSVKGRFTISRDNSKNTLSLQMNSLRAEDTAIYYCARDFYEGSFDIWGQGTMVTVSS
# VL: AIQLTQSPSFLSASIGDRVTITCRASQGISSYLAWYQQKPGKAPKLLIYAASTLQSGVPSRFSGSGSGTEFTLTISSLQPEDFASYYCQQLNSYPAPVFGPGTKVDIK
# B14: mAb 222 (antibody, V domains shown)
# VH: EVQLVESGGGLIQPGGSLRLSCAASGLTVSSNYMSWVRQAPGKGLEWVSVIYSGGSTFYADSVKGRFTISRDNSKNTLYLQMNSLGAEDTAVYYCARGEGSPGNWFDPWGQGTLVTVSS
# VL: DVVMTQSPGTLSLSPGERATLSCRASQSVPSSYLAWYQQKPGQAPRLLIYGASTRATGIPDRFSGSGSGTDFTLTISRLEPEDFAVYYCQHYDTSPRFGGGTKVDIK
# B15: mAb 165 (antibody, V domains shown)
# VH: QVQLVQSGPEVKKPGTSVKVSCKASGFTFTSSAVQWVRQARGQRLEWIGWIVVGSGNTNYAQKFQESVTITRDMSTSTAYMELSSLRSEDTAVYYCAAPHCIGGSCHDAFDIWGQGTMVTVSS
# VL: DIVMTQSPGTLSLSPGERATLSCRASQSVRSSYLAWYQQKPGQAPRLLIYGASRRGTGIPDRFSGSGSGTDFTLTISRLEPEDFAVYYCQQYGSSPWTFGQGTKVEIK
# B16: mAb 159 (antibody, V domains shown)
# VH: B7 VH
# VL: B7 VL
# B17: mAb 88 (antibody, V domains shown)
# VH: B5 VH
# VL: B5 VL
# B18: antibody 384, full-length IgG (antibody, V domains shown)
# VH: EVQLVESGGGLVKPGESLRLSCAASGFTFSDYYMTWIRQAPGKGLEWVSYIRSSGHTIYYADSVKGRFTISRDNAKNSLYLQMNSLRVEDTAVYYCARGGVLRFLEWPLNAFDIWGQGTMVTVSS
# VL: DIQLTQSPSSLSASVGDRVTITCRASQGISNYLAWYQQKPGKVPKLLIYAASTLQSGVPSRFSGSGSGTDFTLTISSLQPEDVATYYCQKYNNALGTFGQGTKVEIK
# B19: antibody 150, full-length IgG (antibody, V domains shown)
# VH: QVQLVESGGGLIQPGGSLRLSCAASGVTVSSNYMSWVRQAPGKGLEWVSIIYSGGTTYYADSVKGRFTISRDSSMNTLYLQMNSLRAEDTAVYYCARDLMVYGIDVWGQGTTVTVSS
# VL: EIVMTQSPSSLSASVGDRVTITCRASQGISSYLAWYQQKPGKAPKLLIYAASTLQSGVPSRFSGSGSGTDFTLTISSLQPEDFATYYCQQLDSYPPGYTFGQGTKVDIK
# Molecular target: T1, SARS-CoV-2 spike protein on authentic virus, strain SARS-CoV-2/human/AUS/VIC01/2020 (Victoria) (SARS-CoV-2, UniProt P0DTC2 14-1273)
# T1 construct: whole, on cells
# Experiment: whole-virus capture ELISA, half-maximal binding
row,Binder,Kd [nM]
1,B1,0.33
2,B2,1.23
3,B3,0.5
4,B4,3.73
5,B5,0.25
6,B6,1.21
7,B7,0.19
8,B8,0.13
9,B9,8.76

# Molecular target: T2, SARS-CoV-2 spike on whole virus (SARS-CoV-2/human/AUS/VIC01/2020, Victoria) (SARS-CoV-2, UniProt P0DTC2 14-1273)
# Experiment: cell-based or functional assay
row,Binder,Neutralisation IC50 (FRNT) [µg/mL]
1,B10,0.033
2,B11,0.015
3,B12,2
4,B13,0.036
5,B14,0.016
6,B15,0.021
7,B16,0.005

# Molecular target: T1, SARS-CoV-2 spike protein on authentic …
# Experiment: cell-based or functional assay
row,Binder,Neutralisation IC50 [nM]
1,B1,0.16
2,B2,45.7
3,B3,0.13
4,B4,4.12
5,B5,0.07
6,B6,6.95
7,B7,0.08
8,B8,0.08
9,B9,27.6

# Molecular target: T3, SARS-CoV-2 receptor binding domain with N501Y (SARS-CoV-2, UniProt P0DTC2 330-532)
# T3 construct: range 330-532; also called RBD-N501Y; RBD N501Y
# Experiment: BLI, RBD immobilised on AR2G biosensor, 1:1 fit
row,Binder,Kd [nM]
1,B2,0.97
2,B4,1.57
3,B6,0.65
4,B9,2.81

# Molecular target: T1, SARS-CoV-2 spike protein on authentic …
# Experiment: calculated from whole-virus ELISA binding and FRNT50
row,Binder,% Occupancy [%]
1,B1,33.3
2,B2,97.4
3,B3,20.5
4,B4,52.7
5,B5,21.9
6,B6,85.2
7,B7,30
8,B8,35.4
9,B9,74

# Molecular target: T2, SARS-CoV-2 spike on whole virus …
# Experiment: not given
row,Binder,EC50 (read off the curve) [nM]
1,B17,~0.2

# Molecular target: T1, SARS-CoV-2 spike protein on authentic …
# Experiment: cell-based or functional assay
# Remark: another data set of the same source
row,Binder,"IC50 (ug/ml), FRNT [µg/mL]"
1,B1,0.026
2,B3,0.031
3,B5,0.033
4,B7,0.011
5,B8,0.018

# Molecular target: SARS-CoV-2 spike protein on authentic virus, strain B.1.1.7 (SARS-CoV-2, UniProt P0DTC2 14-1273)
# Experiment: cell-based or functional assay
Binder,"IC50 (ug/ml), FRNT [µg/mL]",B.1.1.7/Victoria Ratio of IC50
B1,0.035,
B3,0.254,
B5,0.058,
B7,0.061,5.71
B8,0.024,
B18,0.005,
B19,0.139,12
